Consider 1 molecule from US20040062769A1 (US Dept. of Health and Human Services, published 2004).

The target in this assay is T1, FCR3.varCSA protein (Plasmodium falciparum (FCR3 strain), surface iodinated (125I) in the thrombomodulin bead capture).
T1 construct: also called FCR3-CSA var
Description: cytoadhesion of FCR3-CSA PRBCs to CHO-745 cells expressing CD36 (Table 1).

B1: human CD36 expressed on CHO-745 cells (receptor)
chain: GCDRNCGLIAGAVIGAVLAVFGGILMPVGDLLIQKTIKKQVVLEEGTIAFKNWVKTGTEVYRQFWIFDVQNPQEVMMNSSNIQVKQRGPYTYRVRFLAKENVTQDAEDNTVSFLQPNGAIFEPSLSVGTEADNFTVLNLAVAAASHIYQNQFVQMILNSLINKSKSSMFQVRTLRELLWGYRDPFLSLVPYPVTTTVGLFYPYNNTADGVYKVFNGKDNISKVAIIDTYKGKRNLSYWESHCDMINGTDAASFPPFVEKSQVLQFFSSDICRSIYAVFESDVNLKGIPVYRFVLPSKAFASPVENPDNYCFCTEKIISKNCTSYGVLDISKCKEGRPVYISLPHFLYASPDVSEPIDGLNPNEEEHRTYLDIEPITGFTLQFAKRLQVNLLVKPSEKIQVLKNLKRNYIVPILWLNETGTIGDEKANMFRSQVTGKINLLGLIEMILLSVGVVMFVAFMISYCACRSKTIK
notes: whole, on cells; also called CHO^CD36
On to B1, for which the binding result is reported as “no binding”.
